Data on three molecules can be found in patent publication US12275803B2, “Functionalization of biopolymers with growth factor-binding peptides” (Universiteit Twente, priority 2016, dated 2025).

Test [1] deals with TGFB1 reporter cell line (Mink Lung Epithelium Cells, PAI-1 promoter luciferase). Put plainly: Luciferase assay in TGFB1 reporter cell line. The class given is cell-based. Further details: dose or concentration left out as unconfirmed. To be noted: cells on films with immobilized hTGFB1. On the procedure: MLECs were seeded at 64000 cells/cm^2 and allowed to attach overnight at 37° C. in a 5% CO2 incubator. The medium was then replaced by DMEM without FBS and cells incubated for an additional period of 24 hours. Cells were lysed and the luciferase quantified according to the manufacturer's protocol (Promega, E4530). Luciferase values were normalized for DNA content quantified by CyQuant Cell proliferation assay (Invitrogen).

The test system of another test is HUVECs. The test can be described thus: Cell survival of HUVECs after starvation. The class given is cell-based, human. The settings on record: 20 ng/mL hVEGF in medium during 24 hours starvation; versus native films without hVEGF. On the procedure: Samples were incubated with 1 μg/mL of VEGF (PeproTech) in 0.5% (v/v) PBS TWEEN®20 (PBST) for one hour with gentle agitation. The films were then washed three times for 10 minutes with 0.5% (v/v) PBST and then with PBS for a further 10 minutes. Next, the films were blocked for one hour with PBS containing 1% (w/v) bovine serum albumin (BSA) and subsequently washed as described above. Afterwards, the films were incubated with a primary antibody (2 μg/mL; rabbit polyclonal anti-human VEGF, PeproTech) in the blocking solution during one hour with agitation. The films were washed as mentioned above and then incubated with a secondary antibody (8 μg/mL; goat anti-rabbit ALEXA FLUOR® 594, Invitrogen) in PBS containing 1% w/v BSA for one hour with gentle agitation. Before image acquisition, the films were washed three times for 10 minutes with […], rinsed three times with PBS and dried under a N2 stream. Fluorescence intensity was quantified using ImageJ. […]
HUVECs at passage 4 were used for experiments. […] Once detached, fresh medium was added to neutralize the trypsin and the cells were counted. […] After 24 hours, the cells were lysed and the DNA content was quantified by CyQUANT cell proliferation assay (Invitrogen), following the manufacturer's instructions.

In test [2] the test system is BMP-2 reporter cell line (C2C12 Luc, ID1 promoter luciferase). The test can be described thus: Luciferase assay in BMP-2 reporter cell line. Type of test: cell-based. To be noted: 2 ng/mL inhibitor; response to immobilized hBMP-2. On the procedure:
For cell experiments, the sterile films were washed three times with PBS and incubated with concentrated hBMP-2 in PBS for one hour with gentle agitation. Subsequently, the films were extensively washed with TBST (0.5%) and PBS to remove any traces of the washing buffer prior to cell seeding.
C2C12 Luc express luciferase under the control of a ID1 promoter—a BMP-2 target gene (Zilberberg et al., 2007, BMC Cell Biol. 8(41). DOI: 10.1186/1471-2121-8-41).
C2C12 Luc were seeded on films at 16,000 cells/cm2 in DMEM medium supplemented with 10% FBS and allowed to attach overnight at 37° C. in a 5% CO2 incubator. The cells were lysed the following day and the luciferase quantified according to the manufacturer's protocol (Promega, E4530). Luciferase values were normalized for DNA content quantified by CyQUANT cell proliferation assay (Invitrogen).

With `Cc1cccc(-c2[nH]c(C(C)(C)C)nc2-c2ccc3c(c2)OCO3)n1.Cl` [SB-431452, 2-(5-benzo[1,3]dioxol-5-yl-2-tert-butyl-3H-imidazol-4-yl)-6-methylpyridine hydrochloride], the “luciferase activity in presence of TGF-β1 inhibitor” value in test [1] is “completely suppressed”.

B1: soluble VEGF: soluble hVEGF added to the medium during starvation (protein)
chain: APMAEGGGQNHHEVVKFMDVYQRSYCHPIETLVDIFQEYPDEIEYIFKPSCVPLMRCGGCCNDEGLECVPTEESNITMQIMRIKPHQGQHIGEMSFLQHNKCECRPKKDRARQENPCGPCSERRKHLFVQDPQTCKCSCKNTDSRCKARQLELNERTCRCDKPRR
In the case of B1, the “survival of HUVECs (total amount of DNA) with soluble VEGF” value with HUVECs was “significant increase in the amount of DNA”.

B2: Noggin: specific BMP-2 inhibitor (protein, UniProt Q13253 28-232, looked up)
Noggin: QHYLHIRPAPSDNLPLVDLIEHPDPIFDPKEKDLNETLLRSLLGGHYDPGFMATSPPEDRPGGGGGAAGGAEDLAELDQLLRQRPSGAMPSEIKGLEFSEGLAQGKKQRLSKKLRRKLQMWLWSQTFCPVLYAWNDLGSRFWPRYVKVGSCFSKRSCSVPEGMVCKPSKSVHLTVLRWRCQRRGGQRCGWIPIQYPIISECKCSC
As to B2, in test [2], the “luciferase activity in presence of BMP-2 inhibitor” value is “completely suppressed”.
